Assay results published in patent US20240324599A1, “PESTICIDAL ENZYMES FOR USE ON NEMATODES, INSECTS, AND MOLLUSKS” (priority 2023, published 2024).

What was measured:
Assay type in all cases: in vivo
[1] = tested on: soybean cyst nematode (SCN, Heterodera glycines); test: Controlled environment soybean seed treatment trial: SCN cysts on roots; conditions: for % Comparison to Control: base control = 100%
[2] = tested on: Btk resistant Diamondback moth; test: Diet-surface overlay (DSO) bioassay; conditions: Table 47, Btk resistant
Experimental: (§1) Diet-surface overlay bioassays are conducted with artificial diet mixes without antibiotics in 1.5 cm^2 cell bioassay trays(s). Artificial diets are commercially available from Southland Products Inc. Diets were prepared by dispersing 0.5 mL of molten diet to each 1.5 cm^2 cell. After solidification, 0.1 mL enzyme treatments were dispersed on top of diet in each cell and the tray was gently rocked in an orbital shaker to spread the liquid uniformly over the diet surface. Trays were placed under clean airflow until the surface of each cell was uniformly dried. One or two 16-cell sections were used per treatment (the number in larvae treated was 16 or 32).
(§2) One healthy first instar larva was placed into each treatment cell, each 16-cell section was covered with a re-sealable lid and incubated at 27° C. and light-dark period of 16:8 hrs. After 7 days, and according to the species, the number of individuals in the following developmental categories was recorded.
Diamondback moth (Plutella xylostella): Dead Larva (lack of movement), Larva Stage I (≤50% relative size), Larva Stage II (100% relative size, full size), Early Pupa (light green color), Late Pupa (light-dark brown color), and Adult.
(§3) Negative/untreated controls were treated with filtered water and positive controls were treated with lethal doses of Bacillus thuringiensis subsp. Kurstaki (Btk) spores at 1000 ppm.
However, both neutral proteases reduced the number of individuals reaching adult stage.

[3] = tested on: Fall armyworm (Spodoptera frugiperda); test: Diet-surface overlay (DSO) bioassay; conditions: number of individuals
Experimental: as §1, §2, §3

[4] = Table 50, esterases, n=32, dose per treatment in U/mL Diet

B1: Trichoderma lixii trypsin-like protease (protein, listed as Trichoderma lixii)
chain: AAITPRGSDIVGGTTAALGEFPYIVSLSTGGSHFCGGVLIDSRTVVTAGHCTIDQRASSVKVRAGTLTWASGGTQVGVSSLTLHPSYTVDSQGVPDNDVGVWHLATAIPTSSTIGYATLPASGSDPAAGTTLTVAGWGTTSENSNSLPSTLRKVSVPVVARATCDSDYDGEISNNMFCAAVAAGGKDSCSGDSGGPIIDPSGTLVGVVSWGQGCAERGFPGVYTRLGNYVSFINSNRG
modifications: H182 trypsin-like protease
[1]; Table 11
  % Comparison to Control: 26%
[1]; Table 11, free enzyme seed treatment 2 fl oz/unit, soybean P18A98X, ILEVO 0.15 mg AI/seed, 3 weeks after inoculation, base control 71.4
  Average cysts per g of root tissue: 18.6 cysts per g of root tissue

B2: Pseudomonas sp. esterase free enzyme concentrate (SEQ ID NO: 248): free enzyme concentrated in an Amicon Ultra 4K filter unit (protein, listed as Pseudomonas sp.)
chain: MTEPLILQPVKPADACVIWLHGLGADRYDFLPVAEALQEILLSTRFVLPQAPTRPVTINGGYAMPSWYDIKAMSPARAIDRDELEASADRIIELIEEQRSSGIDASRIFLAGFSQGGAVVYHTAFLKWQGPLGGVLALSTYAPTFSDELELSASQQRIPVLSLHGQFDNVVQNSMGRTAYEYLKAHGVTVTWQEYPMEHEVLPEEIRDIGTWLSERLR
[1]; Table 16, change in brackets
  % Comparison to Control: 75% (−25%)
[1]; Table 16, seed treatment, soybean 2830E3, concentrate = 4× volumetric concentration, base control 244.3
  Average cysts per g of root tissue: 182.1 cysts per g of root tissue

B3: Chitinase C (protein, listed as Bacillus thuringiensis)
chain: DSPKQSQKIVGYFPSWGVYGRNYQVADIDASKLTHLNYAFADICWKGKHGNPSTHPDNPNKQTWNCKESGVPLQNKEVPNGTLVLGEPWADVTKSYPGSGTTWEDCDKYARCGNFGELKRLKAKYPHLKTIISVGGWTWSNRFSDMAADEKTRKVFAESTVAFLRAYGFDGVDLDWEYPGVETIPGGSYRPEDKQNFTLLLQDVRNALNKAGAEDGKQYLLTIASGASQRYADHTELKKISQILDWINIMTYDFHGGWEATSNHNAALYKDPNDPAANTNFYVDGAIDVYTNEGVPVDKLVLGVPFYGRGWKSCGKENNGQYQPCKPGSDGKLASKGTWDDYSTGDTGVYDYGDLTANYVNKNGFVRYWNDTAKVPYLYNATTGTFISYDDNESMKYKTDYIKTKGLSGAMFWELSGDCRTSPKYSCSGPKLLDTLVKELLGGPINQKDTEPPTNVKNIIVTNKTSSSVQLSWTASTDNVGVTEYEITAGEEKWSATTNSITIKNLKPNTEYTFSVIAKDASGNKSHPTALTVKTDEANTTPPDGNGTATFSVTSNWGSGYNFSIIIKNNGTIPIKNWKLEFDYSGNLTQVWDSKISSKTNNHYVITNAGWNGEIPPGGSITIGGAGTGNPAELLNAVISEN
[1]; Table 18, change in brackets
  % Comparison to Control: 78% (−22%)
[1]; Table 18, free enzyme seed treatment, base control 58.3
  Average cysts per g of root tissue: 45.7 cysts per g of root tissue

B4: Bacillus thuringiensis Lipase 1 (protein, listed as Bacillus thuringiensis)
chain: YGFVSGVNDVLNPKASNLIKKTDVVAKEKKKTGTLQIVSLGDSLTRGVGDKEGIGYVGRMKEDLQKDYKQKIALTNLAVSGAKMPDLLKQIESNGAQYSIKQADVIVLTIGGNDLFPGWESLGKIDLETYRPDTETFQNEAKKIIEEIRKLNTDSPIFWLGLYNPFEDVEDLKGSSNIVVDWNASLEKLALNDKNVYITPTFDLFQNRGKDLLYSDHFHPNEVGYTYMAERLVQNVVSKLKLEQGGVK
[1]; Table 19, change in brackets
  % Comparison to Control: 75% (−25%)
[1]; Table 19, free enzyme seed treatment, soybean 2830E3, base control 442.5
  Average cysts per g of root tissue: 332.0 cysts per g of root tissue

B5: Bacillus thuringiensis Lipase 2 (protein, listed as Bacillus thuringiensis)
chain: EVVKELGKGFPDTEVFTPGEWFLGQKPANYDENKPPILFVQGRNGNADSWYGKTVYHDINDMYDYALKAGYQTVFIQLYDAAGKGSASQWDNGKLLAQKLEEIYNYFGKKVNIVAHSKGGIDTQAALVEYGANRFVGNVITLATPHHGSNLADLSYSWWAGWLASILGQKDDGTYSLQIGEMAKFRSIIDNNPAAKLNRYYTATGTSWGPTFSALSMGGLYLSSYGSNDGLVNEWSAKLSYGTHLFTDSRFDHDNIRKGSAVFARIEPYLRTTNVGLPALVASSTSSNEDLEQLNTTSNQNILGGELPQNQWIEQSISVDKKAEGIVSVLTASSDVEVQMVSPKGKIYANKDSAITTGEGESFFNRATIRTFKFDKLEVGEWKIKMMAKQSKDAYLVVSDYKDDAPFVLRMPTKVKINKPEYKLKKSPVAPEMKGDLSITVRVVNKEGKLVSEFNELQNVNTNTFTGALKDIKQPGVYNVTMDIKGMNKEGKPYNRTIVKSVYVEK
[1]; Table 20, change in brackets
  % Comparison to Control: 57% (−43%)
[1]; Table 20, free enzyme seed treatment, soybean 2830E3, base control 459.7
  Average cysts per g of root tissue: 264.3 cysts per g of root tissue

B6: Bacillus pumulis Collagenase B (ColB) (protein, listed as Bacillus pumulis, listed as Bacillus pumilus)
chain: IVNGKRVITKKPELLAPAGNLEKLKIAVHYGADAVFIGGQEYGLRSNADNFTIEEIAEGVEFAKKYGAKIYVTTNIFAHNENMDGLEDYLKALGDANVAGIIVADPLIIETCRRVAPNVEVHLSTQQSLSNWKAVQFWKEEGLDRVVLARETSALEIREMKEKVDIEIESFIHGAMCIAYSGRCVLSNHMTARDSNRGGCCQSCRWDYDLYQTDGANAVALYGEEDAPFAMSPKDLKLIESIPKMIEMGIDSLKIEGRMKSIHYVATVVSVYRKVIDAYCADPENFVIQKEWLEELDKCANRDTATAFFEGTPGYEEQMFGEHAKKTTYDFVGLVLNYDEDTQMVTLQQRNFFKKGDEVEFFGPEIENFTHTIETIWDEDGNELDAARHPLQIVKFKLDKKIYPSNMMRKGK
modifications: Collagenase B (ColB)
[1]; Table 22, change in brackets
  % Comparison to Control: 15% (−85%)
[1]; Table 22, free enzyme seed treatment, soybean 2830E3, base control 470.7
  Average cysts per g of root tissue: 70.9 cysts per g of root tissue

B7: Akanthomyces lecanii Acidic Chitinase 1 (Chit1) (protein, listed as Akanthomyces lecanii)
chain: MAKCTSPDRKCPAPLIDAPINSFMTDGWADTDIHWEGDSWNDSGTNIYGCLKQLNILKKHNRNFKVLLSIGGWTYSSNFPAPASTPEGRDTFAKSCVELVKNLGFDGIDIDWEYPKTAEEAGHFVELLAEVRKQLDEYSARAANNYHFELSVACPAGPDNFQKLNISGMDAYLDFWNLMAYDYAGSWDKNSGHQANLYPCKDAPGCTPFSTVAAVDYYTSNGVSPDKLVLGMPLYGRAFENCDGIGQPFQGVGQGTWEQGVYDYKKLPLEGAEEHKDDDSCATYCHNAESRTLVTYDTPELAKTKADFIKERGLGGGMWWESSADKAGDDSLIQVVVSELGGPEALKQQQNCISYPETKYDNLRDGLPDN
modifications: Acidic Chitinase 1 (Chit1-H195)
[2]; individuals of n = 32 after 7 days, mU/mL diet: SEQ 182 3.7, SEQ 185 0.6, water 1
  Dead Larva: 2
[2]; n = 32, doses as E97, water 0
  Early Pupa: 8
  Larva Stage I: 2
  Larva Stage II: 2
[2]; n = 32, doses as E97, water 7
  Adult: 1
[2]; n = 32, doses as E97, water 24
  Late Pupa: 17
[3]; Table 48, chitinases, n = 32
  Larva Stage I: 4
  Larva Stage II: 5
  Larva Stage III: 8
  Larva Stage IV: 8
[3]; Table 48, chitinases, n = 32, dose per treatment in mU/mL Diet
  Dead Larva: 7

B8: H6-pnbA (SEQ ID NO: 94) (protein, listed as Bacillus subtilis)
chain: MTHQIVTTQYGKVKGTTENGVHKWKGIPYAKPPVGQWRFKAPEPPEVWEDVLDATAYGSICPQPSDLLSLSYTELPRQSEDCLYVNVFAPDTPSKNLPVMVWIHGGAFYLGAGSEPLYDGSKLAAQGEVIVVTLNYRLGPFGFLHLSSFNEAYSDNLGLLDQAAALKWVRENISAFGGDPDNVTVFGESAGGMSIAALLAMPAAKGLFQKAIMESGASRTMTKEQAASTSAAFLQVLGINEGQLDKLHTVSAEDLLKAADQLRIAEKENIFQLFFQPALDPKTLPEEPEKAIAEGAASGIPLLIGTTRDEGYLFFTPDSDVHSQETLDAALEYLLGKPLAEKVADLYPRSLESQIHMMTDLLFWRPAVAYASAQSHYAPVWMYRFDWHPKKPPYNKAFHALELPFVFGNLDGLERMAKAEITDEVKQLSHTIQSAWITFAKTGNPSTEAVNWPAYHEETRETLILDSEITIENDPESEKRQKLFPSKGE
modifications: Esterase (pnbA)
[3]; Table 50, esterases, n=32
  Larva Stage I: 0
  Larva Stage II: 0
  Larva Stage III: 15
  Larva Stage IV: 17
[3]; [4]
  Dead Larva: 0

B9: H6-pytH (SEQ ID NO: 95) (protein, listed as Sphingobium wenxiniae)
chain: MTVTDIILIHGALNRGACYDAVVPLLEARGYRVHAPDLTGHTPGDGGHLSVVDMEHYTRPVADILARAEGQSILLGHSLGGASISWLAQHHPDKVAGLIYLTAVLTAPGITPETFVLPGEPNRGTPHALDLIQPVDEGRGLQADFSRLERLREVFMGDYPGEGMPPAEQFIQTQSTVPFGTPNPMEGRALEIPRLYIEALDDVVIPIAVQRQMQKEFPGPVAVVSLPASHAPYYSMPERLAEAIADFADAPAEYRQTATKAGPDRPAGADGGRADRADLP
modifications: Esterase (pytH)
[3]; Table 50, esterases, n=32
  Larva Stage I: 0
  Larva Stage II: 0
  Larva Stage III: 13
  Larva Stage IV: 19
[3]; [4]
  Dead Larva: 0
